Here are results for one protein from ChEMBL document CHEMBL1156801, “Using NMR solvent water relaxation to investigate metalloenzyme-ligand binding interactions” (J Med Chem, 2010).

Substrate in data set [1]: CC[C@H](C)[C@H](NC(=O)[C@H](Cc1ccc(O)cc1)NC(=O)[C@@H]1CCCN1C(=O)[C@H](C)NC(=O)[C@H](CC(C)C)NC(=O)[C@H](CCSC)NC(=O)[C@H](CCC(=O)O)NC(=O)[C@H](CC(C)C)NC(=O)[C@H](CC(=O)O)NC(=O)[C@H](CC(C)C)NC(=O)[C@@H](N)CC(=O)O)C(=O)N1CCC[C@H]1C(=O)N[C@@H](CCSC)C(=O)N[C@@H](CC(=O)O)C(=O)N[C@@H](CC(=O)O)C(=O)N[C@@H](CC(=O)O)C(=O)N[C@@H](Cc1ccccc1)C(=O)N[C@@H](CCC(N)=O)C(=O)N[C@@H](CC(C)C)C(=O)O
Description: (§1) Hydroxylation activity of human PHD2.

Substrate in data set [2]: CC[C@H](C)[C@H](NC(=O)[C@@H](NC(=O)[C@H](CC(=O)O)NC(=O)CNC(=O)[C@H](C)NC(=O)[C@H](C)NC(=O)[C@@H]1CCCN1C(=O)[C@H](C)NC(=O)[C@H](CC(C)C)NC(=O)[C@H](CC(C)C)NC(=O)[C@@H](NC(=O)[C@H](CC(C)C)NC(=O)[C@H](C)NC(=O)[C@@H](N)CC(=O)O)[C@@H](C)O)[C@@H](C)O)C(=O)N[C@H](C(=O)N[C@@H](CO)C(=O)N[C@@H](CC(C)C)C(=O)N[C@@H](CC(=O)O)C(=O)N[C@@H](Cc1ccccc1)C(=O)O)[C@@H](C)CC
The description is as §1.

B1: Egl nine homolog 1 (Homo sapiens), Q9GZT9 (protein)
chain: MANDSGGPGGPSPSERDRQYCELCGKMENLLRCSRCRSSFYCCKEHQRQDWKKHKLVCQGSEGALGHGVGPHQHSGPAPPAAVPPPRAGAREPRKAAARRDNASGDAAKGKVKAKPPADPAAAASPCRAAAGGQGSAVAAEAEPGKEEPPARSSLFQEKANLYPPSNTPGDALSPGGGLRPNGQTKPLPALKLALEYIVPCMNKHGICVVDDFLGKETGQQIGDEVRALHDTGKFTDGQLVSQKSDSSKDIRGDKITWIEGKEPGCETIGLLMSSMDDLIRHCNGKLGSYKINGRTKAMVACYPGNGTGYVRHVDNPNGDGRCVTCIYYLNKDWDAKVSGGILRIFPEGKAQFADIEPKFDRLLFFWSDRRNPHEVQPAYATRYAITVWYFDADERARAKVKYLTGEKGVRVELNKPSDSVGKDVF
For B1, the Km came out at 37 µM in data set [1] and 44 µM in data set [2].
